T1: 4H496-bN
T1 chain: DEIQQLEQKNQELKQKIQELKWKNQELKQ

T2: 4H3070-bN
T2 chain: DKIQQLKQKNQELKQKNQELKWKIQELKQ

T3: 4H2691-bN
T3 chain: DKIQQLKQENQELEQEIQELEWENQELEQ

T4: 4H342-bN
T4 chain: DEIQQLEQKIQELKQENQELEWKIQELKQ

T5: 4H3632-bN
T5 chain: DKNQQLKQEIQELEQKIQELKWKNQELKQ

T6: 4H363-bN
T6 chain: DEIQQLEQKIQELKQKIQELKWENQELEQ

T7: 4H3112-bN
T7 chain: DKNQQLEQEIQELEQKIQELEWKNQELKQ

T8: 4H2745-bN
T8 chain: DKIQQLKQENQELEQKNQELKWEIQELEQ

T9: 4H3907-bN
T9 chain: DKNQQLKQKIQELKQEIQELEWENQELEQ

T10: 4H2619-bN
T10 chain: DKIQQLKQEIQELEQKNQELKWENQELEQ

T11: 4H3961-bN
T11 chain: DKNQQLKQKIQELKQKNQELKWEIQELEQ

T12: 4H470-bN
T12 chain: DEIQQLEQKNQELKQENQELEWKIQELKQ

T13: 4H344-bN
T13 chain: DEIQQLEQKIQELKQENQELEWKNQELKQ


Key:
Assay in all cases: two-hybrid library CCNG1;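 also: natural log of median RNA to DNA barcode read ratio; higher means stronger binding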
4H496-bN = target: T1, 4H496-bN
4H3070-bN = target: T2, 4H3070-bN
4H2691-bN = target: T3, 4H2691-bN
4H342-bN = target: T4, 4H342-bN
4H3632-bN = target: T5, 4H3632-bN
4H363-bN = target: T6, 4H363-bN
4H3112-bN = target: T7, 4H3112-bN
4H2745-bN = target: T8, 4H2745-bN
4H3907-bN = target: T9, 4H3907-bN
4H2619-bN = target: T10, 4H2619-bN
4H3961-bN = target: T11, 4H3961-bN
4H470-bN = target: T12, 4H470-bN
4H344-bN = target: T13, 4H344-bN

interaction score (4H496-bN)	interaction score (4H3070-bN)	interaction score (4H2691-bN)	interaction score (4H342-bN)	interaction score (4H3632-bN)	interaction score (4H363-bN)	interaction score (4H3112-bN)	interaction score (4H2745-bN)	interaction score (4H3907-bN)	interaction score (4H2619-bN)	interaction score (4H3961-bN)	interaction score (4H470-bN)	interaction score (4H344-bN)	Binder
1.01	-1.24	-0.448	-0.0194	-1.21									DKIQQLKQENQELEQEIQELEWENQELEQ [4H2691-bN]
-1.66	-0.245	-1.49	1.23	-0.529	-1.48	0.149	-0.673	-0.483	0.209	-1.65	-0.608	0.255	DKIQQLKQEIQELEQKNQELKWENQELEQ [4H2619-bN]

From PMC10397247
